One test addresses T1, human Factor Bb (human, UniProt P00751 260-764).
T1 construct: The protein in the assay was purified human Factor Bb; also called fBb
Kind of test: direct ELISA screen of hybridoma clones on fBb. On the technique in general: In an ELISA, binding on a coated surface is turned into a signal by an enzyme label.

For test [1], the target named is T2, full length human Complement Factor B (human, UniProt P00751 26-764).
T2 construct: also called fB; FB
In words: ELISA, antigen coated on the plate, HRP goat anti-mouse detection.

T1 sequence (P00751 260-764 limits assumed): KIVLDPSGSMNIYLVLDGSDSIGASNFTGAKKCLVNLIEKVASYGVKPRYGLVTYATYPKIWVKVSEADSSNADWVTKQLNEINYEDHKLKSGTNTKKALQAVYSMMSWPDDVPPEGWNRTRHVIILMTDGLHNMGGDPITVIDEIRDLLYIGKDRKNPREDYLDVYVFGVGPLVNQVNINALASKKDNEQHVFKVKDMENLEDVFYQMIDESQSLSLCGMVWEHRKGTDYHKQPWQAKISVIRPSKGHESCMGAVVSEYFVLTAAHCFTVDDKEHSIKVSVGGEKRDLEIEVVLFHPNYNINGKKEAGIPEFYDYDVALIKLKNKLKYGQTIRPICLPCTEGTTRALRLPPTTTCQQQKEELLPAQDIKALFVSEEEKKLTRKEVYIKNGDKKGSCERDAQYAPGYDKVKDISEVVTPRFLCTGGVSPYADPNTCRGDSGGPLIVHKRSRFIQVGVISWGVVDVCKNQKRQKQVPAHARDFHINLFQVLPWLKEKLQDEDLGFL
T2 sequence (P00751 26-764 limits assumed): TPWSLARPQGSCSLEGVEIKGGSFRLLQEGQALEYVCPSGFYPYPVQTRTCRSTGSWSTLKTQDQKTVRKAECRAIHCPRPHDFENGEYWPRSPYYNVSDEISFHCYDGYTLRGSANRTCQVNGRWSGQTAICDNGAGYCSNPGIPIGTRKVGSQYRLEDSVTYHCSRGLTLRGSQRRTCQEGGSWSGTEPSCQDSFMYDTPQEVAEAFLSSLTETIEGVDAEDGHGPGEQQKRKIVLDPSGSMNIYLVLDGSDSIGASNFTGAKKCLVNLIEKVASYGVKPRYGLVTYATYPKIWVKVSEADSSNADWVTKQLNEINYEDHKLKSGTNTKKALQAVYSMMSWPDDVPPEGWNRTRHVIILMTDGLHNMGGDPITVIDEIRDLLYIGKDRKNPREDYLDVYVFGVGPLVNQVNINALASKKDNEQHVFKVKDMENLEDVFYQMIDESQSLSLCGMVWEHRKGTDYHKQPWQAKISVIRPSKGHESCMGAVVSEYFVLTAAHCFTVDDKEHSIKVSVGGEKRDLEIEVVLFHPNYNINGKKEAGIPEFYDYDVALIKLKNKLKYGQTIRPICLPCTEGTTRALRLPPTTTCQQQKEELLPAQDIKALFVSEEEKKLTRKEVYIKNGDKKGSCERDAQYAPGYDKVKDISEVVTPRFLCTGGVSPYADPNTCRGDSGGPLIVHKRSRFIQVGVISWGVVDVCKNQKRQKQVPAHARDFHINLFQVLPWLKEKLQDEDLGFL

B1: anti-Factor B Ab (antibody, V domains shown)
VH: EVQLQQSGPELVKPGASVKMSCKASGYSFTDYLMNWVKQSHGKSLEWIGRINPYNGDAFYNQRFKGKATLTVDKSSSTAHMELRSLTSEDSALYYCARLENDYGFTYWGQGTLVTVSA
VL: DIVMTQAAFSNPVTLGTSASISCSSSKSLLHSNGITYLYWYLQRPGQSPQLLIYRMSNLASGVPDRFSGSGSGTDFTLRISRVEAEDVGVYYCAQMLERPWTFGGGTKLEIK
notes: Mouse monoclonal antibody purified from hybridoma supernatant (NZBW mice immunised with fBb); also called FBb Ab; anti-Factor B antibody
Consider B1, for which the binding result (with human Factor Bb; in test [1]) was “binds” in each case.

For the origin of these results see patent US20200239556A1 (BIOVERATIV USA, published 2020).
